Data reported in the DeepSol protein solubility set.

test: soluble on expression in E. coli; label from the status in PepcDB or PDB records

Sequence | soluble on expression in E. coli
MGHHHHHHSHMVISWHLASDMDCVVTLTTDAARRIYDETQGRQQVLPLDSIYKKTLPDWKRSLPHFRNGKLYFKPIGDPVFARDLLTFPDNVEHCETVFGMLLGDTIILDNLDAANHYRKEVVKITHCPTLLTRDGDRIRSNGKFGGLQNKAPPMDKLRGMVFGAPVPKQCLILGEQIDLLQQYRSAVCKLDSVNKDLNSQLEYLRTPDMRKKKQELDEHEKNLKLIEEKLGMTPIRKCNDSLRHSPKVETTDCPVPPKRMRREATRQNRIITKTDV | not soluble
MGSDKIHHHHHHMTEQNRDLVLVTGASGFVGSSVARIAQQKGFKVRVLVRATSPRQNVESLDAEIVVGDMRDEASMRNALRGVRYLLHVAADYRLWAPDPSEIERSNLEGTEATMRAALKEGVERIVYTSSVATLKVTSSGQSADETSPLKADQAIGVYKRSKVLAERAVERMIAEDNLPAVIVNPSTPIGPRDVKPTPTGRIIVEAALGKIPAFVDTGLNLVHVDDVAAGHFLALERGKIGERYILGGENLPLQQMLADIAALTGRKAPTLSLPRWPLYPLAMGAEAIAKITKREPFVTVDGLKMSKNKMYFTSAKAERELGYRARPYREGLGDALEWFRQAGYLKA | not soluble
MSMNRQEISDLCVKSLEGRMVGTEAQNIENGNAFYRYFFTNFPDLRVYFKGAEKYTADDVKKSERFDKQGQRILLACHLLANVYTNEEVFKGYVRETINRHRIYKMDPALWMAFFTVFTGYLESVGCLNDQQKAAWMALGKEFNAESQTHLKNSNLPHV | not soluble
ATSYMTCSAYQKVQDSEISFPAGVEVQVLEKQESGWWYVRFGELEGWAPSHYLVLDENEQPDPSGKE | soluble
MRSYFLIFILILLLEIREVWSWKAPYLRDRPRGLGLLQLPTGISDERSGPFLPGLYIAGNKVNQKPQTVPDVHLPGQPADFTGRSAFNPFTHMVSAVYAEDLSDGWGAGMAVNGVNGHGLNVRKNFDSYADVPLNLNDGMYQPFIAAATVGGEYDLSKMREVSGSLDLPIPGVNELFDLNARILVKTFLLHNSAIEFPLTLSDPNERAPYNFRYAVWAPDRHMAYGHVVPNVNPYVIGKDKIMERLMQNRLNPTMVG | not soluble
MGSDKIHHHHHHACSSEEGGSQAMGGKGAVILDLAAETVFDTKTKAVDESTYLTDRPLADYKVKILDAQGHVVSGCEWKYSERPTGLIELSNGSYTVVASDGEEFNVNASTRNGIYMYGSSRFDVNSDKVAAVNVACKPACGKLVVKFGDTMATYFSDYAVHFSTQAAGENGSIIWPKGDTDPLYVKLAEAGENVTATFQFTKKADGTNAEVNTLTREMKWGSMWTITVNPKVEDTTGKVGITITFDDSTNDKPIDIEIPSDWL | not soluble
LIIFVFGYYLAFNQNKYVSYNDETKQFVHTDTSKIMENLVNRQQGIYYFGFPTCPWCLELLPILDKELEKESMNAYAVNTRGDDYTENDDELLQKFYQKYTGDESLSVPFIVAINNKKEVQVHIGTVKNHDATKTKLKRRQKE | not soluble
TKNNQQTTPQTNHFNVADPVNKVPNWRKLGPETQRELRDLLYPLDDTGYFIYKYGAISRYLQSQKELDELVDYRTVLPSTQKHFKYDSFNQSVLESKLRKWLMKAIKQHPYFQHFEFDPVLKAQYNINIPAQKITVNAVWFYKKDNDLTTGKPIRYWDQFEIKLKQ | soluble
MAHHHHHHMAVLIKNNEASLVDMAVQDFIKLGIDGVYTTMKTVVSFEYIFNFTSHMRNLHKYSTNFLELQINGHNKECVTNILQNLTLENIRKSTSTSIKAGFEFINTLNDDIKKKYFSENLNYMVMVTITWDIHTDNRIPSNEPFSILCYIKCLPKHSNNVQIDIMCGERKTPNIKYSNVFDVRNKMLKLKSEDSHEVVLYNEKEEITEGLTCNFFCFFNDTLYTAKDELVLKGTMREQIIQICEEVGITLKRKVST | not soluble
GHHHHHHMTTQLEQAWELAKQRFAAVGIDVEEALRQLDRLPVSMHCWQGDDVSGFENPEGSLTGGIQATGNYPGKARNASELRADLEQAMRLIPGPKRLNLHAIYLESDTPVSRDQIKPEHFKNWVEWAKANQLGLDFNPSCFSHPLSADGFTLSHADDSIRQFWIDHCKASRRVSAYFGEQLGTPSVMNIWIPDGMKDITVDRLAPRQRLLAALDEVISEKLNPAHHIDAVESKLFGIGAESYTVGSNEFYMGYATSRQTALCLDAGHFHPTEVISDKISAAMLYVPQLLLHVSRPVRWDSDHVVLLDDETQAIASEIVRHDLFDRVHIGLDFFDASINRIAAWVIGTRNMKKALLRALLEPTAELRKLEAPGDYTARLALLEEQKSLPWQAVWEMYCQRHDTPAGSEWLESVRAYEKEILSRRG | soluble
MMYIDNEVLEKMIMTMVEGFNRLEKKLDRMNRLKDCLDGDTLLDNCDLAQLLGVTQRTIARYREKGLIRYYQTDENGKNFYRSSEIQDFLRHRGKKK | not soluble
MTADIRFDEKGLVPAIVQDAQSKEVLTLAYMNKESLEKTLETGETWFYSRSRQELWHKGATSGNVQRVVDIRYDCDADALLVLVEPAGPACHTGSYSCFSRSLDGAARTPAADRFAILNELEQIIAKRDAERPEGSYTTYLFEKGVDKILKKVGEEAAEVIIAAKNQNHEELKWEAADLLYHLLVLLREQKLPLDAVLATLAERHAQKVGAGDKKE | not soluble
SLAHIVTLNTPYREDWLTQLADVVTDPDELLRLLNIDADEKLLAGRSAKKLFALRVPRSFIDRMEKGNPDDPLLRQVLTSQDEFVVASGFSTDPLEEQHSVVPGLLHKYHNRALLLVKGGCAVNCRYCFRRHFPYAENQGNKRNWQTALEYVAAHPELDEMIFSGGDPLMAKEHELDWLLTQLEAIPHIKRLRIHSRLPIVIPARITEALVERFARSTLQILLVNHINHANEVDETFRQAMAKLRRVGVTLLNQSVLLRGVNDNAQTLANLSNALFDAGVMPYYLHVLDKVQGAAHFMVSDDEARQIMRELLTLVSGYLVPKLAREIGGEPSKTPLDLQLRQQ | not soluble
MSLKSPPKKDEENVKINNMFKCGFYSFKGNRTYNEDRVIIIEDMNNFLKENIINNIKDMETPSYIYCAIYDGHNGDNAVNIVQKLLHIHMYYYFINGNGLENSLKYSFQEIDNYLCKNIINIKEENHSNYSSGTTACVSVIFKNMLYVANIGDSRCIISKNGRAIVLTVDHRASINKKEQDRILKSGGILDDEGYLGGCLGVCRGFGSFHKKTKEKLKGLICEPDLFHIKLTDDDEFLIICCDGIFDVITSQEAVNTVKNSLIQSRDAKTAAEALCQLAYKKKSLDNLSVLVVIFQNPDKEGHHHHHH | soluble
MATAVVQRKGYDNVELSLSEDDDPVKEKKKSKGNEKKSSTESKSKESKETSKEEDLAQKKFLMTQKTQSMTEDEKEVKPKAPESQKPKKNSAEESNEKIKKEGSVKVETVASKVKPASSRVPPIASTPGKGSVDGEQKKKSTGCCIIL | soluble
MSLSPAPTTMDFTPAPLEDTSSRPQFCKWPCECPPSPPRCPLGVSLITDGCECCKMCAQQLGDNCTEAAICDPHRGLYCDYSGDRPRYAIGVCAQVVGVGCVLDGVRYNNGQSFQPNCKYNCTCIDGAVGCTPLCLRVRPPRLWCPHPRRVSIPGHCCEQWVCEDDAKRPRKTAPRDTGAFDAVGEVEAWHRNCIAYTSPWSPCSTSCGLGVSTRISNVNAQCWPEQESRLCNLRPCDVDIHTLIKAGKKCLAVYQPEASMNFTLAGCISTRSYQPKYCGVCMDNRCCIPYKSKTIDVSFQCPDGLGFSRQVLWINACFCNLSCRNPNDIFADLESYPDFSEIANEGHHHHHH | not soluble
MEYLNVAEIKALLNSTISKLNPRYTSNYMIVTAILTGARLSEIAGLTWNDINFNFNTININKSYDYFAKSFKPTKNKSSNRIIKINNTLCDVLKELRTNNTDLVFKNKRGLIPTSNAVNKALRARLEELNINRRNFHFHSLRHSHVAFLLSQGIDIYPIAQRLGHSDITTTTRTYAYLIEEYKDKNDAIIIAGLDKLEHHHHHH | soluble
SMNFYSAYQHGFVRVAACTHHTTIGDPAANAASVLDMARACHDDGAALAVFPELTLSGYSIEDVLLQDSLLDAVEDALLDLVTESADLLPVLVVGAPLRHRHRIYNTAVVIHRGAVLGVVPKSYLPTYREFYERRQMAPGDGERGTIRIGGADVAFGTDLLFAASDLPGFVLHVEICEDMFVPMPPSAEAALAGATVLANLSGSPITIGRAEDRRLLARSASARCLAAYVYAAAGEGESTTDLAWDGQTMIWENGALLAESERFPKGVRRSVADVDTELLRSERLRMGTFDDNRRHHRELTESFRRIDFALDPPAGDIGLLREVERFPFVPADPQRLQQDCYEAYNIQVSGLEQRLRALDYPKVVIGVSGGLDSTHALIVATHAMDREGRPRSDILAFALPGFATGEHTKNNAIKLARALGVTFSEIDIGDTARLMLHTIGHPYSVGEKVYDVTFENVQAGLRTDYLFRIANQRGGIVLGTGDLSELALGWSTYGVGDQMSHYNVNAGVPKTLIQHLIRWVISAGEFGEKVGEVLQSVLDTEITPELIPTGEEELQSSEAKVGPFALQDFSLFQVLRYGFRPSKIAFLAWHAWNDAERGNWPPGFPKSERPSYSLAEIRHWLQIFVQRFYSFSQFKRSALPNGPKVSHGGALSPRGDWRAPSDMSARIWLDQIDREVPKG | soluble
MAHHHHHHMEGSSGHLKSTAVAHNDGQALPPAAGAGHAPPTSNAAAGQQKTDQPPIAAVPVMSVAERAAATAEAERALSLLCTIRAVRRQTEELTVLLLHACGEWGCWSVPTAEEGVACETTRTPLPSSPLPGRIRHSQHLFADLFVAAPLAPTAFCTSSSVSLVGVSDGTAKADLLDLSAGEDADPARLSAASVFAKESACRRERACQALRQALQQQQQRWSLSTAAAATATLAAGAAFLEMALAPPQRAVPPPPPMSVQLDLYAVQPCALQRSIQEWRPRAAQTTAAGATKAGGTSPPEEAASLHCSLQQLLHTLGRQGPQLQSSYDVLHAAAGQRHRTNTRSCTDEQRGVPPREATTGVIKAAEARAVVHKTHGTSAAASDAPQEVEVPPLPSSSSPLAVAPDTLRRTPSSLPRQHSSTTPSSSSQALPSSDTLLSSPVQLAVDHTRLWADPPTPLQRADFSCAAAAAPTSTEISERGARIPVHQAGRSVLEDASSHRTKGKPELEAHVEVEVIGGNADGSHAAAGASSSNSTQVTNMRRTSLSSSTFFHSPVAVDARGGVVGALREVYEASWQPCSNARPSTRPEAAHAVAVAEEKLASQHQEERRSRRCDRGGSATAVELEDSVRRHLTRWMSQQPNDRAWVSGGPGLGPASFLLDPIRHAPGSSRAATRATDATAPALGQGAGRDRRGSRRAVHSGVRVDPIREHAREEGAGAGTESPLDAWPRPGARTAGPRGPGCSRSAAEMSELQLCMCVLLA | soluble
MLEAEVVALKDLIEVAGAVVSTLDLDTVLRHILTSAMRFAETPAGSIALYDGYRNDLTLHAHEGLTPEFVKTERWSVQPGGLTEQVLTRGEILFVNDTADTSFFHNPTALNEGIRSLICVPLMMQNRIVGILYLDDFVPRDFDKERMKLLSVLASFAAMAIDNAQLHARTR | not soluble
HDYLMKGNLSRLVPAIERELREADERRRRRQAEEAMHAQFNQISTIFDSLNALVYVVDMNSYELLYLNKFGAQLFGEAWEGRTCHDVLHGGRSTPCDFCTNDKLIMDGKALPPYIWEYQNSISSRWYQCIDKAIRWTD | not soluble
